According to patent US20200024330A1:

Experiments:
Test in all cases: cell-based or functional assay
[1] = target: HIV-1 92BR020 Env (pseudovirus) (HIV-1)
[2] = target: HIV-1 CAAN.A2 Env (pseudovirus) (HIV-1)
[3] = target: HIV-1 Env of isolate 92UG001 (subtype D) (HIV-1)
[4] = target: HIV-1 Env of isolate 98CN006 (subtype CRF08 BC) (HIV-1)
[5] = target: HIV-1 Env of isolate MG RM-D-020 (subtype D) (HIV-1)
[6] = target: HIV-1 Env of isolate MGRM-C-023 (pseudovirus) (HIV-1 isolate MGRM-C-023, subtype C)
[7] = target: HIV-1 Env of isolate MGRM-C-025 (pseudovirus) (HIV-1 isolate MGRM-C-025, subtype C)
[8] = target: HIV-1 Env of isolate MGRM-C-027 (pseudovirus) (HIV-1 isolate MGRM-C-027, subtype C)
[9] = target: HIV-1 Env of isolate MGRM-F1-014 (HIV-1)
[10] = target: HIV-1 Env of isolate MGRM-F1-017 (HIV-1)
[11] = target: HIV-1 Env of isolate MGRM-F1-023 (HIV-1)
[12] = target: HIV-1 JR-CSF Env N478A (HIV-1 (isolate JR-CSF)) (UniProt P20871)
[13] = target: HIV-1 JR-CSF Env P470A (HIV-1 (isolate JR-CSF)) (UniProt P20871)
[14] = target: HIV-1 JR-CSF Env R480A (HIV-1 (isolate JR-CSF)) (UniProt P20871)
[15] = target: HIV-1 MGRM-Chronic-B-024 Env (pseudovirus) (HIV-1)
[16] = target: HIV-1 TRO.11 Env (pseudovirus) (HIV-1)
[17] = target: HIV-1 93IN905 envelope glycoprotein (Env) on pseudovirus (HIV-1)
[18] = target: HIV-1 93UG077 envelope glycoprotein (Env) on pseudovirus (HIV-1)
[19] = target: HIV-1 94UG103 envelope glycoprotein (Env) on pseudovirus (HIV-1)
[20] = target: HIV-1 Env of isolate 98CN009 (HIV-1)
[21] = target: HIV-1 Env of isolate MG RM-A-006 (HIV-1)
[22] = target: HIV-1 Env of isolate MGRM-A-009 (clade A), on pseudovirus (HIV-1)
[23] = target: HIV-1 Env of isolate MGRM-AE-001 (CRF01_AE), on pseudovirus (HIV-1)
[24] = target: HIV-1 Env of isolate MGRM-AE-003 (CRF01_AE), on pseudovirus (HIV-1)
[25] = target: HIV-1 Env of isolate MGRM-AG-006 (CRF_AG), on pseudovirus (HIV-1)
[26] = target: HIV-1 Env of isolate MGRM-F1-008 (subtype F), on pseudovirus (HIV-1)
[27] = target: HIV-1 Env of isolate NL43 (HIV-1)
[28] = target: HIV-1 MGRM-A-010 envelope glycoprotein (Env) on pseudovirus (HIV-1)

Sequence of 5345_I01 (PGT-137) (antibody) (VH): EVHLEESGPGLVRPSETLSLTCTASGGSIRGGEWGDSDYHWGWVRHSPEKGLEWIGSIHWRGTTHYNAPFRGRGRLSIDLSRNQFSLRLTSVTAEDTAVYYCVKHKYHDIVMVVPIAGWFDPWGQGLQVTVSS
Sequence of 5345_I01 (PGT-137) (antibody) (VL): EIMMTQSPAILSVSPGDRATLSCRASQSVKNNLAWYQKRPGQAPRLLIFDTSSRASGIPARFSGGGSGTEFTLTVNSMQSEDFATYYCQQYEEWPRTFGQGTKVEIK
Sequence of 5329_C19 (PGT-136) (antibody) (VH): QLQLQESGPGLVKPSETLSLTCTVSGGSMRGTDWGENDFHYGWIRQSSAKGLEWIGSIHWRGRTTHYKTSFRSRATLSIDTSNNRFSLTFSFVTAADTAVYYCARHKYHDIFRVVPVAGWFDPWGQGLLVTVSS
Sequence of 5329_C19 (PGT-136) (antibody) (VL): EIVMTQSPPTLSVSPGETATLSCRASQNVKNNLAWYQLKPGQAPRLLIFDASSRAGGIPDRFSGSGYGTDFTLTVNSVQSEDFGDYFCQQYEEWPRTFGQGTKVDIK

Substance	Fold IC50 increase relative to wild-type [12]	Fold IC50 increase relative to wild-type [13]	Fold IC50 increase relative to wild-type [14]	IC50 [20]	neutralization IC50 [21]	IC50, single-round pseudovirus neutralization [22]	IC50, single-round pseudovirus neutralization [23]	IC50, single-round pseudovirus neutralization [24]	IC50, single-round pseudovirus neutralization [25]	IC50, pseudovirus neutralization [26]	IC50 [27]	also measured
5145_B14 (PGT-127) (antibody)	1.2 fold	1 fold	0.2 fold									IC50, pseudovirus neutralization [1]: 0.059 µg/mL; IC50, pseudovirus neutralization [2]: 0.371 µg/mL; IC50 (µg/mL), pseudovirus neutralization [3]: > 50 µg/mL; IC50 (µg/mL), pseudovirus neutralization [4]: 0.067 µg/mL; IC50 (µg/mL), pseudovirus neutralization [5]: 0.015 µg/mL; IC50 (µg/mL) neutralization [6]: 1.08 µg/mL; IC50 (µg/mL) neutralization [7]: > 50 µg/mL; IC50 (µg/mL) neutralization [8]: > 50 µg/mL; IC50 [9]: > 50 µg/mL; IC50 [10]: > 50 µg/mL; IC50 [11]: 0.119 µg/mL; IC50, pseudovirus neutralization [15]: > 50 µg/mL; IC50, pseudovirus neutralization [16]: 0.079 µg/mL
5147_N06 (PGT-130) (antibody)	0.8 fold	2.4 fold	1 fold	0.136 µg/mL	> 50 µg/mL	0.308 µg/mL	1 µg/mL	0.337 µg/mL	0.009 µg/mL	0.065 µg/mL	> 50 µg/mL	IC50 (ug/ml), neutralizing activity [17]: 0.0182 µg/mL; IC50 (ug/ml), neutralizing activity [18]: > 10 µg/mL; IC50 (ug/ml), neutralizing activity [19]: 0.635 µg/mL; IC50 (ug/ml), neutralizing activity [28]: 0.0054 µg/mL
5329_C19 (PGT-136) (antibody)				0.428 µg/mL	> 50 µg/mL	> 50 µg/mL	> 50 µg/mL	> 50 µg/mL	29.1 µg/mL	> 50 µg/mL	27.7 µg/mL	
5343_B08 (PGT-135) (antibody)	0.7 fold	0.8 fold	1.4 fold	0.071 µg/mL	> 50 µg/mL	> 50 µg/mL	> 50 µg/mL	> 50 µg/mL	17.9 µg/mL	> 50 µg/mL	8.03 µg/mL	
5345_I01 (PGT-137) (antibody)				5.06 µg/mL	> 50 µg/mL	> 50 µg/mL	> 50 µg/mL	> 50 µg/mL	28.3 µg/mL	> 50 µg/mL	17.4 µg/mL	
